Assay results reported in publication PMC6901440.

Columns and labels:
[1] = biological target: Flag-MLKL T357D/S358E phosphorylation mimic (human) (UniProt Q8NB16); experiment: immunoblot of oligomers in cytosol and membrane fractions; HEK-293T cells transfected with Flag-MLKL constructs, with or without RIP3, Bcl-2 or Bcl-2 G145A; Triton X-114 detergent phase separation; oligomers seen by immunoblot (gel conditions not told)
Bcl-2 = Bcl-2 (UniProt P10415); experiment: anti-Flag co-IP, Bcl-2 blot; details: reference: wild-type MLKL with RIP3; sites T357,S358

Bcl-2 (transfected, HEK-293T), sequence (P10415 whole entry): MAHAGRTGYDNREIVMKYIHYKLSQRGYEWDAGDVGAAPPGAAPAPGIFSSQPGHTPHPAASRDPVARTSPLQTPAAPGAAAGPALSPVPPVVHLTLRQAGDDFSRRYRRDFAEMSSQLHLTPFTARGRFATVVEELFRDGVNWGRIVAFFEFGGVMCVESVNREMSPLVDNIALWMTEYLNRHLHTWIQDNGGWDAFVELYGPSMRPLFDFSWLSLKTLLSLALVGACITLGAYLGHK
Flag-MLKL T357D/S358E phosphorylation mimic (human), sequence (Q8NB16 whole entry T357D/S358E): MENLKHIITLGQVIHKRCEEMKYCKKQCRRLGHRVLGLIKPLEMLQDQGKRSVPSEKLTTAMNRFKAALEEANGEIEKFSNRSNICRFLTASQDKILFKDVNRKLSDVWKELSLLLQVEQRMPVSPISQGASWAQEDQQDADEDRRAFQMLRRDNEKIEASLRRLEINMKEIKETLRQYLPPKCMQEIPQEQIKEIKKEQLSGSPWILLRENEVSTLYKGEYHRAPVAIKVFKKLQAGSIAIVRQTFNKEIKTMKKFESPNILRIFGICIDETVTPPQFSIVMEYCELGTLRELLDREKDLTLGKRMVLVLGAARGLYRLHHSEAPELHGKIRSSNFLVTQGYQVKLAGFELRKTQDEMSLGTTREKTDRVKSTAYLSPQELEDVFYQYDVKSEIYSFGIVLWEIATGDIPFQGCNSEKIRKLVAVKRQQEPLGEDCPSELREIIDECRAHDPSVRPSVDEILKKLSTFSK

Row | percent decrease of MLKL oligomerization [1] | binding against the reference (Bcl-2) | Substance
1 | 30% | – | Bcl-2 (transfected, HEK-293T) (from UniProt P10415 1-239)
2 | – | weaker | MLKL (from UniProt Q8NB16) T357A/S358A with RIP3
